Experimental data: the DeepSol protein solubility set

Assay: soluble on expression in E. coli; label from the status in PepcDB or PDB records

| Sequence | soluble on expression in E. coli |
| --- | --- |
| MGSDKIHHHHHHMVGIVLASHGGFADGIAESAQMLFGPQDNFAHVILKPSEGPEDIKGKMNEAIASFADQEEVLFLVDLWGGTPFNQANGLLDGHDKWAIVSGLNLPMVVEALTQRMINDKATAQDIATAIIKPAKDGIKTKPESLMPAEEKAAAPAAAAGAPKEAIPEGTVLGDGHIKIVGARIDSRLLHGQVVTGWIPSLHPDRVIVVSDKIAKDDLRKSMIREAAPAGTVAHTVPLEKMKEIYEDPRFGTTHAFLLFENPEDALQTIKNGVDIKTLNVGSMSYSKGKVNANNVLSMDQTDVDTFRELEKMGIKFDVRKVPSDNPENMDSILKKAQSLLDEQSSSEKRS | not soluble |
| MSLSKNDHRITHNKSDKDNLDDDFSLFRDEVKGVKKLRQDTILHAPNRNPKQKEIRRTEREASDNDFYFSDEFMPHLTDEGPTRYARSDVSKYEVKRLRRGVYVPDVFLDMHGMTQQEAKRELGAMIAYCLKENVHCACVQHGIGKHILKQNVPLWLAQHPDVLAFHQAPLEFGGDGALLVLLSIPEKEGHHHHHH | soluble |
| MGSDKIHHHHHHMIQQKVRVGLLGVGLDTYWGQFEGLLPRLLTYQDEIAAKIEAMDVQVINTGMVDSPLKANECVLQLKQADVELVFLFISTYALSSTILPVAQQVGKPIIILNIQPASAIDYQKLNSMGDRGRMTGEWLAHCQACSVPEFASVLNRAGVRYDIITGYLSEDYVWEEIASWVDAVRVMYGMRTSRLGVLGHYYCGMLDVYTDLMKQSAVFGTHIELLEMCELKAYREEVSDGELKRKLDEFYDKFNVEASCSSEELVRAARTSVALDKLVNVHQLGAMAYYYEGFCGNDYENIVTSVIAGNTLLTGYGIPVAGECEVKNAQAMKIMSLLKAGGSFSEFYAMDFKDDIVLLGHDGPAHFAIAEEKVKLVPLPLYHGKPGKGLSIQMSVKPGDVTLLSVCEGRDGVFLLAAEGEAVQGETLHIGNTNSRYRFPCGARRFMDQWSKAGPSHHCAIGIGHKVSELKKLAFLLDIPIIVVE | not soluble |
| MAASAAATAAASAATAASAASGSPGSGEGSAGGEKRPAASSAAAASAAASSPAGGGGEAQELLEHCGVCRERLRPERDPRLLPCLHSACSACLGPATPAAANNSGDGGSAGDGAMVDCPVCKQQCYSKDIVENYFMRDSGSKASSDSQDANQCCTSCEDNAPATSYCVECSEPLCETCVEAHQRVKYTKDHTVRSTGPAKTRDGERTVYCNVHKHEPLVLFCESCDTLTCRDCQLNAHKDHQYQFLEDAVRNQRKLLASLVKRLGDKHATLQKNTKEVRSSIRQVSDVQKRVQVDVKMAILQIMKELNKRGRVLVNDAQKVTEGQQERLERQHWTMTKIQKHQEHILRFASWALESDNNTALLLSKKLIYFQLHRALKMIVDPVEPHGEMKFQWDLNAWTKSAEAFGKIVAERPGTNSTGPGPMAPPRAPGPLSKQGSGSSQPMEVQEGYGFGSDDPYSSAEPHVSGMKRSRSGEGEVSGLLRKVPRVSLERLDLDLTSDSQPPVFKVFPGSTTEDYNLIVIERGAAAAAAGQAGTVPPGAPGAPPLPGMAIVKEEETEAAIGAPPAAPEGPETKPVLMPLTEGPGAEGPRLASPSGSTSSGLEVVAPEVTSAPVSGPGILDDSATICRVCQKPGDLVMCNQCEFCFHLDCHLPALQDVPGEEWSCSLCHVLPDLKEEDGSLSLDGADSTGVVAKLSPANQRKCERVLLALFCHEPCRPLHQLATDSTFSMEQPGGTLDLTLIRARLQEKLSPPYSSPQEFAQDVGRMFKQFNKLTEDKADVQSIIGLQRFFETRMNDAFGDTKFSAVLVEPPPLNLPSAGLSSQELSGPGDGP | soluble |
| MKYTITVMSGKGGVGKSTVAVNLAVSLARKGLKVGLIDADINGPDDPKLLGVSDLKLYADEEGIIPAETRYGVRVVSMGFLIPTEDTPIIWRGSLMHKAIQQFLEDVNWKDTDVVVLDMPPGTGDVALSVAQLIPESNGVVIVVTPQDVALLDAKKAINFAKQLKLPVLGIIENMSGFVCPHCGNVTYIFKNGGGEKSAKEYNLPFLGKIPLIPEIAENGDNGIPAVVINDKIREIFDSITDQILKEAQIENIKQLEHHHHHH | not soluble |
| GPGSMNPHSRMPEDGGNAQPNETHRLMVGAAGQRPNVSGQFGKSTSPSLVAFAFLHLPLEDGCGAEEEEQNFLAFDVTTWATRIRNEGISGAVVDLWGAYNYYWHQADDRVQLALDSLASWMHALEMDRDPADRFTDLGRILLQVFWLQMMVTTANPGITISTLCARLHMAVHEAETCARATKPLA | soluble |
